To fix the notation:
T1: F protein of RSV A long virus strain (respiratory syncytial virus, RSV A long virus strain), P12568
T1 chain: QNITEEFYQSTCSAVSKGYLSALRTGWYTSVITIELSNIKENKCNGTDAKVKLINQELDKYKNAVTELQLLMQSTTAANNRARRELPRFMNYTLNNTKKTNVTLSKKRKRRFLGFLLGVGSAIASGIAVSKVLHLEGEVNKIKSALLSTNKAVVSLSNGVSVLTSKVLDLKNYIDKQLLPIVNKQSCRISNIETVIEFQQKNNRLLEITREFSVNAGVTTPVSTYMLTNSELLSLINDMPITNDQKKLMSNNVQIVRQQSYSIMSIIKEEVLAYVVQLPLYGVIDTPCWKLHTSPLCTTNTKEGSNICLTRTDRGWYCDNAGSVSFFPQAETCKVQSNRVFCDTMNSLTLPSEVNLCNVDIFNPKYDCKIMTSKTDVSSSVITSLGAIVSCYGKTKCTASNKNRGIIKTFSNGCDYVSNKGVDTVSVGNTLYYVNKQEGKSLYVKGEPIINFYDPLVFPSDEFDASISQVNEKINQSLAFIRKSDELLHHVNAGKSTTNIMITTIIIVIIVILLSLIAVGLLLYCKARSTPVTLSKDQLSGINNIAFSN

From patent publication US20260250325A1, “Antiviral Polypeptide Membrane Fusion Inhibitor, and Preparation Method and Application Thereof” (priority 2025, published 2026) come the findings set out here.

The Kd is the equilibrium constant for the complex coming apart. Lower therefore signals tighter binding.

For one assay, the target named is T1, F protein of RSV A long virus strain …. Put plainly: cell-based or functional assay.
Consider WDEFDKKIEEVNKKIEESLKKIEESDKKLHNVEAAAKK (modifications not checked) [Compound 44], for which the IC50/nM, Cell fusion inhibition activity (plaque reduction, RSV A long strain, HEp-2 cells) was found to be 12.4 nM.

Molecule WDEFDASIEEVNRRIEESLRRIEESDRRLEEVEAAAKK (modifications not checked) [Compound 43] displayed an IC50/nM, Cell fusion inhibition activity (plaque reduction, RSV A long strain, HEp-2 cells) of 18.3 nM.

FDEEISQVNEKINQSLAFIRKSDELLHNVNAGKSTTEAAAKK (modifications not checked) [Compound 26] displayed an IC50/nM, Cell fusion inhibition activity (plaque reduction, RSV A long strain, HEp-2 cells) of 12.8 nM.

Regarding DEFDASISQVNEKINQSLEEIRKSDELLHNEAAAKK (modifications not checked) [Compound 28], the IC50/nM, Cell fusion inhibition activity (plaque reduction, RSV A long strain, HEp-2 cells) came out at 12.4 nM.

In the case of WDEFDKKIEEVNKKIEESLKKIEESDKKLEAAAKK (modifications not checked) [Compound 13], the IC50/nM, Cell fusion inhibition activity (plaque reduction, RSV A long strain, HEp-2 cells) worked out at 13 nM.

On to SDEFDKKIEEVNKKIEESLKKIEESDKKLEAAAKK (modifications not checked) [Compound 16], for which the IC50/nM, Cell fusion inhibition activity (plaque reduction, RSV A long strain, HEp-2 cells) stood at 10.3 nM.

In turn, YDELVFDASQVNEKINQSLEKIRKSDELLHNVEAAAKK (modifications not checked) [Compound 30] showed an IC50/nM, Cell fusion inhibition activity (plaque reduction, RSV A long strain, HEp-2 cells) of 14.9 nM.

Regarding WDEFDKKIEEVNKKIEESLKKIEESDKKLEEVNEAAAKK (modifications not checked) [Compound 41], the IC50/nM, Cell fusion inhibition activity (plaque reduction, RSV A long strain, HEp-2 cells) turned out to be 14.8 nM.

For the molecule WDEFDASISQVNEKINQSLEEIRKSDELLHNVNAGLGSGSGK (modifications not checked) [Compound 27], the IC50/nM, Cell fusion inhibition activity (plaque reduction, RSV A long strain, HEp-2 cells) was determined as 25.7 nM.

On to WDEFDASISQVNEKINQSLEEIRKSDELLHNEAAAKK (modifications not checked) [Compound 45], for which the IC50/nM, Cell fusion inhibition activity (plaque reduction, RSV A long strain, HEp-2 cells) worked out at 12.2 nM.

Substrate in another assay: F protein of hPIV Type 3 (hPIV3 C243) (human parainfluenza virus type 3, strain C243)
Put plainly: cell-based or functional assay.
As for WDEFDKKIEEVNKKIEESLKKIEESDKKLHNVEAAAKK (modifications not checked) [Compound 44], the EC50 (nM), plaque reduction, hPIV3 C243, LLC-MK2 cells is 27.9 nM.

For WDEFDASIEEVNRRIEESLRRIEESDRRLEEVEAAAKK (modifications not checked) [Compound 43], the EC50 (nM), plaque reduction, hPIV3 C243, LLC-MK2 cells turned out to be 16.1 nM.

In the case of FDEEISQVNEKINQSLAFIRKSDELLHNVNAGKSTTEAAAKK (modifications not checked) [Compound 26], the EC50 (nM), plaque reduction, hPIV3 C243, LLC-MK2 cells came out at 1.35 nM.

Turning to DEFDASISQVNEKINQSLEEIRKSDELLHNEAAAKK (modifications not checked) [Compound 28], the EC50 (nM), plaque reduction, hPIV3 C243, LLC-MK2 cells amounted to 54.4 nM.

For WDEFDKKIEEVNKKIEESLKKIEESDKKLEAAAKK (modifications not checked) [Compound 13], the EC50 (nM), plaque reduction, hPIV3 C243, LLC-MK2 cells worked out at 35.6 nM.

With SDEFDKKIEEVNKKIEESLKKIEESDKKLEAAAKK (modifications not checked) [Compound 16], the EC50 (nM), plaque reduction, hPIV3 C243, LLC-MK2 cells was determined as 59 nM.

On to YDELVFDASQVNEKINQSLEKIRKSDELLHNVEAAAKK (modifications not checked) [Compound 30], for which the EC50 (nM), plaque reduction, hPIV3 C243, LLC-MK2 cells was 48.2 nM.

As to WDEFDKKIEEVNKKIEESLKKIEESDKKLEEVNEAAAKK (modifications not checked) [Compound 41], the EC50 (nM), plaque reduction, hPIV3 C243, LLC-MK2 cells worked out at 71.1 nM.

As to WDEFDASISQVNEKINQSLEEIRKSDELLHNVNAGLGSGSGK (modifications not checked) [Compound 27], the EC50 (nM), plaque reduction, hPIV3 C243, LLC-MK2 cells amounted to 27.2 nM.

Consider WDEFDASISQVNEKINQSLEEIRKSDELLHNEAAAKK (modifications not checked) [Compound 45], for which the EC50 (nM), plaque reduction, hPIV3 C243, LLC-MK2 cells amounted to 36.3 nM.

Substrate in another assay: F protein of hMPV virus strain A2 (human metapneumovirus, strain A2)
Nature of the assay: cell-based or functional assay.
As for WDEFDKKIEEVNKKIEESLKKIEESDKKLHNVEAAAKK (modifications not checked) [Compound 44], the EC50 (nM), plaque reduction, hMPV A2, Vero cells worked out at 14.6 nM.

WDEFDASIEEVNRRIEESLRRIEESDRRLEEVEAAAKK (modifications not checked) [Compound 43]: the EC50 (nM), plaque reduction, hMPV A2, Vero cells stood at 16.8 nM.

Consider FDEEISQVNEKINQSLAFIRKSDELLHNVNAGKSTTEAAAKK (modifications not checked) [Compound 26], for which the EC50 (nM), plaque reduction, hMPV A2, Vero cells was found to be 103 nM.

As to DEFDASISQVNEKINQSLEEIRKSDELLHNEAAAKK (modifications not checked) [Compound 28], the EC50 (nM), plaque reduction, hMPV A2, Vero cells was found to be 58.6 nM.

Consider WDEFDKKIEEVNKKIEESLKKIEESDKKLEAAAKK (modifications not checked) [Compound 13], for which the EC50 (nM), plaque reduction, hMPV A2, Vero cells turned out to be 11.7 nM.

For the molecule SDEFDKKIEEVNKKIEESLKKIEESDKKLEAAAKK (modifications not checked) [Compound 16], the EC50 (nM), plaque reduction, hMPV A2, Vero cells was found to be 7.35 nM.

YDELVFDASQVNEKINQSLEKIRKSDELLHNVEAAAKK (modifications not checked) [Compound 30]: the EC50 (nM), plaque reduction, hMPV A2, Vero cells is 94.8 nM.

As for WDEFDKKIEEVNKKIEESLKKIEESDKKLEEVNEAAAKK (modifications not checked) [Compound 41], the EC50 (nM), plaque reduction, hMPV A2, Vero cells came out at 11.7 nM.

Take WDEFDASISQVNEKINQSLEEIRKSDELLHNVNAGLGSGSGK (modifications not checked) [Compound 27]: the EC50 (nM), plaque reduction, hMPV A2, Vero cells is 78.3 nM.

Consider WDEFDASISQVNEKINQSLEEIRKSDELLHNEAAAKK (modifications not checked) [Compound 45], for which the EC50 (nM), plaque reduction, hMPV A2, Vero cells worked out at 200 nM.

Substrate in a further assay: F protein of hMPV virus strain B1 (human metapneumovirus, strain B1)
Nature of the assay: cell-based or functional assay.
Regarding WDEFDKKIEEVNKKIEESLKKIEESDKKLHNVEAAAKK (modifications not checked) [Compound 44], the EC50 (nM), plaque reduction, hMPV B1, Vero cells was 6.6 nM.

WDEFDASIEEVNRRIEESLRRIEESDRRLEEVEAAAKK (modifications not checked) [Compound 43]: the EC50 (nM), plaque reduction, hMPV B1, Vero cells came to 8.01 nM.

Turning to FDEEISQVNEKINQSLAFIRKSDELLHNVNAGKSTTEAAAKK (modifications not checked) [Compound 26], the EC50 (nM), plaque reduction, hMPV B1, Vero cells is 2.85 nM.

On to DEFDASISQVNEKINQSLEEIRKSDELLHNEAAAKK (modifications not checked) [Compound 28], for which the EC50 (nM), plaque reduction, hMPV B1, Vero cells is 13.8 nM.

In the case of WDEFDKKIEEVNKKIEESLKKIEESDKKLEAAAKK (modifications not checked) [Compound 13], the EC50 (nM), plaque reduction, hMPV B1, Vero cells is 6.18 nM.

As to SDEFDKKIEEVNKKIEESLKKIEESDKKLEAAAKK (modifications not checked) [Compound 16], the EC50 (nM), plaque reduction, hMPV B1, Vero cells turned out to be 4.5 nM.

Consider YDELVFDASQVNEKINQSLEKIRKSDELLHNVEAAAKK (modifications not checked) [Compound 30], for which the EC50 (nM), plaque reduction, hMPV B1, Vero cells was 51.3 nM.

On to WDEFDKKIEEVNKKIEESLKKIEESDKKLEEVNEAAAKK (modifications not checked) [Compound 41], for which the EC50 (nM), plaque reduction, hMPV B1, Vero cells was determined as 9.46 nM.

In the case of WDEFDASISQVNEKINQSLEEIRKSDELLHNVNAGLGSGSGK (modifications not checked) [Compound 27], the EC50 (nM), plaque reduction, hMPV B1, Vero cells came out at 10.5 nM.

Take WDEFDASISQVNEKINQSLEEIRKSDELLHNEAAAKK (modifications not checked) [Compound 45]: the EC50 (nM), plaque reduction, hMPV B1, Vero cells is 13.1 nM.

For a further assay, the target named is hPIV-N51 (139-189) (human parainfluenza virus (hPIV)).
hPIV-N51 (139-189) (human parainfluenza virus (hPIV)), sequence (P06828 139-189): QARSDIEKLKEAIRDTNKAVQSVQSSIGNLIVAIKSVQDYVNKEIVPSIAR
Assay: not given
In turn, WDEFDKKIEEVNKKIEESLKKIEESDKKLHNVEAAAKK (modifications not checked) [Compound 44] showed a Kd of 6860 nM.

The molecule WDEFDASIEEVNRRIEESLRRIEESDRRLEEVEAAAKK (modifications not checked) [Compound 43] came in with a Kd of 5720 nM.

Molecule FDEEISQVNEKINQSLAFIRKSDELLHNVNAGKSTTEAAAKK (modifications not checked) [Compound 26] returned a Kd of 2580 nM.

With DEFDASISQVNEKINQSLEEIRKSDELLHNEAAAKK (modifications not checked) [Compound 28], the Kd worked out at 983000 nM.

WDEFDKKIEEVNKKIEESLKKIEESDKKLEAAAKK (modifications not checked) [Compound 13] registered a dissociation constant Kd of 2280 nM.

Regarding SDEFDKKIEEVNKKIEESLKKIEESDKKLEAAAKK (modifications not checked) [Compound 16], the Kd came to 5400 nM.

YDELVFDASQVNEKINQSLEKIRKSDELLHNVEAAAKK (modifications not checked) [Compound 30]: the Kd was found to be 1020 nM.

With WDEFDKKIEEVNKKIEESLKKIEESDKKLEEVNEAAAKK (modifications not checked) [Compound 41], the Kd worked out at 492 nM.

WDEFDASISQVNEKINQSLEEIRKSDELLHNVNAGLGSGSGK (modifications not checked) [Compound 27] registered a Kd of 812 nM.

WDEFDASISQVNEKINQSLEEIRKSDELLHNEAAAKK (modifications not checked) [Compound 45] had a Kd of 178000 nM.
